# Experimental data reported in the DeepSol protein solubility set.
# Assay: soluble on expression in E. coli; label from the status in PepcDB or PDB records
row,Sequence,soluble on expression in E. coli
1,MSLRHLLRSLIGKTLAFFVEREDDNLTRVREHLMDLLDARPSPVRAQNLRSARQLLHKQADVFNRAFQAALQTSMDEEMRAVLPEAPASAVANDTSADPLDGMTLSLIDVCEVERILLVDRVAQRFTAHYDASVSALTQRLGVLLGRDVAALSSNPFRPEVFVRAFLLAWENSGLDKQATEDLMLSLDPLHSIDLTPLYADLNAMLTHAGIAAQPARRVIKSEGAGSSYLPLSPASAHAHLQGGEMRSGLGDLEPERARSAWDALAPAGRSIASHARQFLQRLGLASSSGQNDSGAGEGADWTPADGHETRTYLASADPEFMGYLGDLQAGAQAESAERILPGQHPGDRNVLRQMRDRDEVRRAPELDRGTVDALAEVFDFVFADQAIPVQMKFVIGRLQIPVLKAAMIDRDFFLSADHPARRLVDTLAQASIAWAPEKGESDPLYVRIENTVQRVLTEFEDDLALFSELLAEFTEFLFETEQQAQGRIEPAVDHERVGESFEQALAHADEVIHARIAALPSELPLAPFLAPFLTTQWREVLARAWLNVQASAAPWDSAVTSMDQLIWSTQPKTRIEERRQLVALLPELVRRLNAGLDAIEWVGEPRATFTRRLIATHMMAIRMTQAASVDSMSAALEANAGKEAMNELEQRRSGQLAGSVDDFDAMAQSFTRGLWFDFLLDEHTQHRCLLSWVSPMRTRLLFTNRDGFDAFVRSEREVAALLRHGRLHVIDQQPIVSRALDRIMSEGERKQEGHHHHHH,soluble
2,MSLRIESGVCYVINEFCALGNTYMPIDKLVKNCINVLNVKKEEVEKAIYECTLSQKIKVEIINGENCVFTMEYYYCEIGITRKIITLAYDSYKSLEIDVDQKIIQFENENKIKFAPSQVEAIEGAFSNGIEVITGGPGTGKTTIIRCITYIFEELNMKVFMAAPTGRAAKRMSESTGREAKTIHRMLELGYEDEVFFDNNNYSTLQCDVVIIDEASMIDVVLMNSLLKSIGMGTRVIIVGDVDQLPSVGPGNVLRDIIESKCVKVIRLNNIFRQAKESMITVNAHKINSGEMPLLNKKDKDFYFIREDNAEAITNTIISLVYKRLPLFNKSWKAARDIQVLAPMKKGIAGVANLNVSLQSIINPPHKSKDEIKFRDNIFRVGDKVMQIKNNYMLKEGHHHHHH,not soluble
3,MSLRIPDKNNLMIYELLLRDFTATGDLNGAMEKIGYLKSLGFNAVELMPVQEFDGNDSWGYNPCFHFALDKAYGTDHMYKAFIDKCHEVGMAVLFDVVYNHASGSHPFARLYWDTKNNRTAADNPWFNVKEPHPYGVFHDFNHDSPLVRAFVKRNLKFLLEEYRIDGFRFDMTKGFTQNSSTEATAGSYDASRIAILKDYNETVREVNPEAVVILEHFCDEKEESELAEEGMQLWRNLNNAYCQSAMGYPSNSDFTPLVTFGTTMPYGGWVGFMESHDEERTAFKQIAYGEGPLKSDINVRMKQLAANASFFFTAPGPKMVWQFGEMGYDVSIEEGGRTGRKPLHWEYLDNEARKGLCNTYAKLLKLRREHSELFNPGSTFSWLVKTANWTGGRFLTLAATNGKRLVVVGNFTAKPIEAITSFPVTGVWTNYLDGTKLHVTSIPTGLMIPAHECRVYINEGHHHHHH,not soluble
4,MSLRKGSMRITPLGGLGEIGRNMNVIEYNGHLLLIDCGVLFPEEEQPGVDLILPDFSYIKNRLDKVDALVLTHGHEDHIGGVPYLLKLRPDIPLIGSKLTLAFVDAKCKEHHQNPTKVEVAGREKLKVGPFDLEFVNVTHSIPDALAVYVKTPAGSLIDTGDIKLDQLPLDHRITDLVEFGKIGEKGVDLLMMDSTNAEVPGFVKPETSIGPALDQAFAQATRKIIVASFSSHVHRVQQVVDAAHKYGRKVVFVGRSMVRNMSIAADLGYLHIPEGTVVDLKQANDIQDDKLVFMCTGSQGEPMAALGRIADGNHRDIHINEFDTVILASSLIPGNEHGVYKVINKLVQLGAKVVNRDNAAVHVSGHCNEGELLYMYNIVKPKCAMPIHGENRHLVANGLIAVKTGVDPQNVVLAEDGDVVDLYHGRAAVVGSVPCGYVYVDGDSVGELTDDELEKRRILGTEGFVSAFVVVDTDNHEVVTGPKIYLNAVAEDESEFDKVRHQIVEQLNDQMMQGTRDTYKLQQTMRRTLGSWVARQLHRKPMIVPVVADIAQDVETVETKEGHHHHHH,soluble
5,MSLRLKTILLTTMATGSFLCEPVAAMCIEPPATPDMGWFLKKKKKSNPQDSIKVKNEYEKLTGSDSVVRRGMFNVYQKKNDYYFEIPSTLLERDMLVVNKLQRVPAELNEAGVNRGTNYENQMIRFELDKSANKLLIRQSRPLPISPSEDAISQSVKDNYISPLIAGFKVEAYNNDSTSILIKVNDIYDGTETSINNVFTNINLGTSAIKNLSRILSIKSFDNNVVATSELTTRVTEGTTTIYVTVEVSSSILLLPEVPMTGRLDNPRVGYFTNPLTNFSDGQQRVNKKQFITRWRLEPRPEDRAAYLRGELVEPRKPIVFYIENSTPYRWRKYIKQGIEDWQVAFERAGFKNAIIAKDITEDMEVDMDDVNYSVLTYAASTKANAMGPSILDPRSGEILEADIMWWHNVLSMLQEWITVQTGVVRPEAREGHHHHHH,not soluble
6,MSLRLLRVVGCPEWVIDHSLAVRKKALELSRELPVDMKLVEEGAILHDIGRCRTSGVEHAVEGARILEGFGYPPEVVRIVERHVGAGIPPEEAKALGLPPGDYMPRTLEEKIVAHADNLINGSDEVDIDFVIKKWSDRLGADHPSIESLKRLHEELLGHL,not soluble
7,MSLRPEFQGLQGGLFSSVKKADVGTAVLDLMANGVDMLCWADPFFPDPVLPEHISQAVIKSMENGSASHYTMPIGNPELKEKIALKLQRYNNLTVEAQRNILITPGSDSGLLFAMMPFINNDDEVLIHSPSYPSNFLNVELLGGKPISVELKAENNFQIDIKDFENKITEKTKMVILTNPNNPTGTVLRRESLQAIADFIIAHDLILVVDQAFEDAIFDEIEFISIASLPGMWERTVSVFSFSKGMGLSGFRVGYLVADAQIVDVLFGCTVNVVGATNTSSQAGMIAALDEPSFMGEYTQIFERRRKVVFEMMNAIPGVCMVMPESGFLSWIDISKLGTSTFICDYLLQHAHVMVNSGVPYGQGGEGYIRLVHGCYKDDEKLYAVLTRIQQALMQLAKEKGICHGEGHHHHHH,soluble
8,MSLRPQAPMTQTPMAQASTSTTTPQKIVLYMATTTSVKDTGLLDVLIPDFEKWAASRGYNIEVRYTAVGTGQALAMAARGDVDVVIVHAPSLEKQYLENGTLKCRDVIAYNFFIIVGPRDDPAGAKSLTATEAFRRIAEAKAPFVSRGDRSGTHLMELSLWRRAIGREPDPKNDTWYISAGAGMGQTLLLANEKSAYTLSDTGTWLRYRDKLPQLDVIVQAAPDLINIYSFSIVKLSNATRLMAQYMKTRGLEVIGNLTINGVSLFTPINKADPKAMEWIKTAIFGPSCVEREGHHHHHH,soluble
9,MSLRQRLTRRDPVSRLPNREQFQSDLYDLADENPGERRVLVLVDAVDMTVAHELTLAMGLAPFETIVRFLAQQLLAYLGRHVRVYHVSVKRFGFLLPAAPGIERFLESLVRRLRRQPPGLELPMIPGVCAGTVEFSTDRDAVPDVLRKAMFALELATLNRSTWAPYDVVRDQAYRRAFNLASDISEALDSGQIYLMFQPRFALPDGAQVSAEALIRWDHPWLGPISPAEFIPVMERNALIHRVTHWVINAVLGKLQAWSDGEVQRLSINLSPQDFEDQDIADVLKAACRRHGIEPHRLEVEITEGAWLRSNPRVLDQLSKIRALGMDVAIDDFGTGYSNFAYLHQIPANVVKLDKSMVTDLESSAQHQKITRSVIALARELGYRTVAEGIESFKCLQMLRTFGCDEAQGYFLARPMVQEKFLARSAAQRFPLQEGHHHHHH,soluble
10,MSLRRPYEALRGHFEKCLATPLRPMNLRTLAGNDKGYIHTAVEQLGARTARSYRAIYSEVQKRSLDREINARLSPLESICRREFECCVELSELAEVYLRKMERGEICDADTSQPNEIIDDAQVDSIMKGEGYGGSGNSGGDSSVKRLIDVLESLRPHENLFDIVVNEEWICSPNFNNWLSRFCTRRVSWRVIHEHLLHLVGPGRYSPIIRTDPNVGSILRHTGTVVVEQYVRSIQSIHGGSMFIHMEEQPDLFTRVPSGRLATSSKVDCPIFPTTSMPPAPSSRVIYSVEGHLEYVFRELMKNACLAMRSRTNSIELQVCFASNDTHVVVDVTDAAGGIAPDAVEKLWLFGWTTNSSFDNKMGGFGIGLPASKCYMDLWGGRIDLYTTEGVGTTVRVIFPKAPTEVFVPKGTEGHHHHHH,soluble
11,MSLRSHFATQKDQWQTYTKEKKIKIGFDATFVPMGYEEKDGSYIGFDIDLANAVFKLYGIDVEWQAIDWDMKETELKNGTIDLIWNGYSVTDERKQSADFTEPYMVNEQVLVTKKSSGIDSVAGMAGKTLGAQAGSSGYDAFNASPKILKDVVANQKVVQYSTFTQALIDLNSGRIDGLLIDRVYANYYLEKSGVLDQYNVMPAGYEGESFAVGARKVDKTLIKKINQGFETLYKNGEFQKISNKWFGEDVATDQVKGKREGHHHHHH,soluble
12,MSLRVAIEGCTQGHGTLDAIYASVEESCKQRGWDGVDILIIGGDFQSVRNAEDLSIMSCPVKYRHLGDFPKYYSGERKAPYLTIFIAGNHEASSHLWELYYGGWVAPNIYYMGAANILRFGPLRIAGLSGIWKGFDYRKPHHERLPFSGGDVKSWYHVREIDVRKLLQVQTQVDVGLSHDWPRAVELHGDHEWLFRKKPDFRNESRDGTLGSVAAEYVMDRLRPPHWFSAHMHVKFAAIKTYSEAQPEEGHHHHHH,soluble
13,MSLSAIPPDAIDDESRDTLTGLAGIASASDWLDRNGAKGFVHAMLLGLHRFRSVNLAYGQSAGDIALVELAQRIRIFADEEIGGDTLVARVGGGDFLVASAGKVSRERWQWLAEALARRVSRVLPLRGEELQLAPRIALLRGQPGEGGPALLDRLDQALTTLQQQPARRLQWADGSHLARGRSAARLEADMIGAMARDEIGIVFQPQYAVAGGDIVGVEALARWDHPQLGRIGAETLFALAERGDHVAQVSRHIAGRAMWQAVEWKPVIPLSLNITAEDLGDDRLVEDCRLLLAQTGYPPSSLTVEVTEHALIADFERSAAALEQLARLGVRIALDDFGAGYANFRTLKALPVNTLKLDASLVRDIDRDPRDRAILRAIVAMARALGQKVVVEGIERESQLQVLAAEGCDAFQGFLRSGPIPADQIAALSREGHHHHHH,soluble
14,MSLSCPRCGWVHYINPLPVAIALTVNRNNELLMIRRAHEPAFNEWALPGGFLEAGERPEEGCLRELFEETSLEGTIDKLIGVWHLESGLYGSLIAVAYRVIAAHERISINHEVFEAGFYRPDNMPPVRIPLHRQIIAESRWPERDLSLTEGHHHHHH,not soluble
15,MSLSDLHTKYMGLTLRSPLVASAGPIQQKVDGVRALADAGVGAIVMYSLFEEQVRHEEARQAEIELEYMDSFAESLSFFPTVASNEGGITERYLAHLEASANAVDIPVIASLNGATNGGWVDTAKRMENAGAAGIECNIYMVPGDLEQSAEEVEDRHVEIVQAVKDAVSVPVAVKLSPFFSALGNMATRLDAAGADALVMFNRFLQPDINVETMQVEPGVWLSSPADARLPLTWIAVLSGRIGASLAASSGVESANDVVKYLLAGADVVMTTSALVRHGAGYATELQKGLESYLQRKEVDLDTLRGTLAVPNDASTAEYERNGYVAALEKAKTTYGEGHHHHHH,not soluble
16,MSLSDRWDQTGLKTRVDGVLRSFLDEEAAHLAAVDAALAPVADQLRKAAGHGKRLRAAFCYWGWRAAGQPESDALVRAAASMELVHAAAVVHDDLIDDSRLRHGLPTAHVALEAVLARDGRPDARTAARSLAMLVGDQLMVLAGLLFTTSGLPAAYLARARDLWAVLARELVAGECLEILHTGGPPDTGTSLKVVRYKTAKYTVEHPLLIGGLLAGAAPALRDTYRAYALPLGEAFQLRDDLLGLFGDPERTGKASLDDLRAHRPTALLAETWKAADASQRQWLRRLLGRDDLDATHLHDVRRLMRELNAPQRVEQMIADRVERATRALDGAGTPPHARRALRELAQQATDRTHEGHHHHHH,soluble
